From patent publication US5683867, “Systematic evolution of ligands by exponential enrichment: blended SELEX” (NeXstar Pharmaceuticals, Inc.)

Molecular target: neutrophil elastase (HNE) (Homo sapiens, UniProt P08246 P08246:30-267)
Experiment: inhibition; blended ligand (end not specified for Ki); chromogenic substrate, 10 nM elastase, 2 mM MgCl2, 150 mM NaCl, 25 C; >50% inhibition at 70 nM for 3' conjugate
Source text: The assay for elastase inhibition is based on the use of a chromogenic tetrapeptide substrate. […] The rate of p-nitroanilide generation in the absence of inhibitor was used as the control.

Sequence of neutrophil elastase (HNE) (P08246 30-267, one chain of several): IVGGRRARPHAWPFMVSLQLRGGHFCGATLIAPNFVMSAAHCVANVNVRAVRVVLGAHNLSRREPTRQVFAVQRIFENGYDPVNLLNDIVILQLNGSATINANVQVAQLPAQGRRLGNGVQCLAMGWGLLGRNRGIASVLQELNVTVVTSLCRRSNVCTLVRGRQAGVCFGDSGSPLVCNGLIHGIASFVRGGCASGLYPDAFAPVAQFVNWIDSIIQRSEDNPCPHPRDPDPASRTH

B1: DNA-17 3'-end peptide conjugate (ssDNA)
DNA: TAGCGATACTGCGTGGGTTGGGGCGGGTAGGGCCAGCAGTCTCGTGCGGTACTTGAGCA
modifications: 3' four 18-atom ethylene glycol spacers and thiol coupled to N-methoxysuccinyl-Ala-Ala-Pro-Val-chloromethyl ketone
B1 gave a Ki of 30 nM.
